Data from patent publication US20180311326A1 (FRAUNHOFER GESELLSCHAFT ZUR FOERDERUNG DER ANGEWANDTEN …, published 2018).

Molecular target: T1, AMA1_GKO-HC2.2
T1 construct: PfAMA1_GKO fused to human IgG1 constant region with K392D and K409D already in the entry; also called AMA1GKO-modHC2_K392D-K409D; PfAMA1_GKO-HC2.2-ER
Experiment: co-expression in N. benthamiana, SDS-PAGE under reducing and non-reducing conditions

B1: MSP119_3D7-HC1.2-ER (Fc fusion)
chain: ISQHQCVKKQCPENSGCFRHLDEREECKCLLNYKQEGDKCVENPNPTCNENNGGCDADATCTEEDSGSSRKKITCECTKPDSYPLFDGIFCSSSNAAAKGPSVFPLAPSSKSTSGGTAALGCLVKDYFPEPVTVSWNSGALTSGVHTFPAVLQSSGLYSLSSVVTVPSSSLGTQTYICNVNHKPSNTKVDKKVEPKSCDKTHTCPPCPAPELLGGPSVFLFPPKPKDTLMISRTPEVTCVVVDVSHEDPEVKFNWYVDGVEVHNAKTKPREEQYNSTYRVVSVLTVLHQDWLNGKEYKCKVSNKAFPAPIEKTISKAKGQPREPQVYTLPPSRDKLTKNQVSLTCLVKGFYPSDIAVEWESNGQPENNYKTTPPVLKSDGSFFLYSKLTVDKSRWQQGNVFSCSVMHEALHNHYTQKSLSLSPGKSEKDEL
notes: PfMSP119 (3D7) fused to human IgG1 constant region with E356K and D399K already in the entry; also called MSP119-modHC1_E356K-D399K; PfMSP119_3D7-HC1.2-ER
- binding result: binds
